Five molecules from PMC8880771, “Therapeutic antibody activation of the glucocorticoid-induced TNF receptor by a clustering mechanism” (Science Advances, 2022) can be followed below.

For orientation: stoichiometry N means the number of molecules, sites or subunits per partner or assembly.

B1: full-length mouse GITR fused to EGFP at its C terminus (mGITR_(egfp)), purified (receptor, UniProt O35714 20-228, looked up)
chain: QPSVVEEPGCGPGKVQNGSGNNTRCCSLYAPGKEDCPKERCICVTPEYHCGDPQCKICKHYPCQPGQRVESQGDIVFGFRCVACAMGTFSAGRDGHCRLWTNCSQFGFLTMFPGNKTHNAVCIPEPLPTEQYGHLTVIFLVMAACIFFLTTVQLGLHIWQLRRQHMCPRETQPFAEVQLSAEDACSFQFPEEERGEQTEEKCHLGGRWP
modifications: intersubunit disulfide bond at Cys55
notes: signal peptide in the construct; mouse GITR, full-length gene in pEZT-BM, followed by a thrombin cleavage site, EGFP and 8x His; Cys14 lies in the predicted signal peptide and is not in the mature protein; last residue P228; Disulfide-linked dimer by cryo-EM; EGFP fluorescence was monitored in FSEC; also called glucocorticoid-induced TNF receptor; source: HEK293S GnTI- suspension cells (BacMam), …

Data set [1] deals with the molecule itself. Put plainly: cryo-EM structure; mGITR_(egfp)/DTA-1 Fab complex in DDM, single-particle cryo-EM, global resolution 4.4 Å.
Data set [2] deals with the molecule itself. The data set can be described thus: non-reducing SDS-PAGE with anti-1D4 Western blot; lysate, nonreduced (-DTT); denaturing SDS-PAGE, shows only covalent dimers.
Data set [3] addresses B1. The data set can be described thus: SEC; FSEC of purified proteins mixed with mGITR_(egfp), EGFP fluorescence (tryptophan fluorescence as control), Superose 6 Increase 10/300 GL, 20 mM tris pH 8.0, 300 mM NaCl, 0.5 mM DDM; molar ratio 1:15:4:2 for mGITR_(egfp):mGITRL:Fab:IgG. The settings on record: both partners purified.

Take B1: the “stoichiometry N” value in data set [1] came to 2.

B2: full-length mGITR_(egfp) with C-terminal 1D4 tag, in HEK293 lysate (receptor, mouse, UniProt O35714 20-228, looked up)
chain: QPSVVEEPGCGPGKVQNGSGNNTRCCSLYAPGKEDCPKERCICVTPEYHCGDPQCKICKHYPCQPGQRVESQGDIVFGFRCVACAMGTFSAGRDGHCRLWTNCSQFGFLTMFPGNKTHNAVCIPEPLPTEQYGHLTVIFLVMAACIFFLTTVQLGLHIWQLRRQHMCPRETQPFAEVQLSAEDACSFQFPEEERGEQTEEKCHLGGRWP
modifications: intersubunit disulfide bond at Cys55
notes: signal peptide in the construct; mouse GITR, full length (to P228), followed by EGFP and a 1D4 tag; May be the same construct as m1; the methods name an 8x His tag for the purified protein, the results a 1D4 tag for all constructs analysed in lysate; source: HEK293 cells, solubilized with DDM, in lysate; not shown: EGFP, C-terminal, kept; 1D4, C-terminal, kept
For B2, the “stoichiometry N” value in data set [2] is 2.

B3: mGITR_(ΔCTD-egfp) (domain or fragment, mouse, UniProt O35714 20-185, looked up)
chain: QPSVVEEPGCGPGKVQNGSGNNTRCCSLYAPGKEDCPKERCICVTPEYHCGDPQCKICKHYPCQPGQRVESQGDIVFGFRCVACAMGTFSAGRDGHCRLWTNCSQFGFLTMFPGNKTHNAVCIPEPLPTEQYGHLTVIFLVMAACIFFLTTVQLGLHIWQLRRQHM
notes: signal peptide in the construct; mouse GITR without the unstructured C-terminal residues C186-P228; also called CTD deletion construct; source: HEK293 cells, solubilized with DDM, in lysate; not shown: EGFP, C-terminal, kept; 1D4, C-terminal, kept
As for B3, in data set [2], the “stoichiometry N” value was found to be 2.

B4: mGITR_(ΔCTD-egfp)-C164A (domain or fragment, mouse, UniProt O35714 20-185, looked up)
chain: QPSVVEEPGCGPGKVQNGSGNNTRCCSLYAPGKEDCPKERCICVTPEYHCGDPQCKICKHYPCQPGQRVESQGDIVFGFRCVACAMGTFSAGRDGHCRLWTNCSQFGFLTMFPGNKTHNAVCIPEPLPTEQYGHLTVIFLVMAAAIFFLTTVQLGLHIWQLRRQHM
notes: signal peptide in the construct; mouse GITR without the C-terminal residues C186-P228, with C164A; also called C164A mutant; source: HEK293 cells, solubilized with DDM, in lysate; not shown: EGFP, C-terminal, kept; 1D4, C-terminal, kept
For B4, in data set [2], the “stoichiometry N” value came to 2.

B5: full-length mouse GITR ligand (mGITRL) (ligand, UniProt Q7TS55 1-173, looked up)
chain: MEEMPLRESSPQRAERCKKSWLLCIVALLLMLLCSLGTLIYTSLKPTAIESCMVKFELSSSKWHMTSPKPHCVNTTSDGKLKILQSGTYLIYGQVIPVDKKYIKDNAPFVVQIYKKNDVLQTLMNDFQILPIGGVYELHAGDNIYLKFNSKDHIQKTNTYWGIILMPDLPFIS
notes: mouse GITRL, full-length gene with transmembrane region, in pEZT-BM; the oligomeric state of the full-length protein was not measured here; source: HEK293S GnTI- suspension cells (BacMam), solubilized in DDM, purified (StrepTrap HP, Superose 6)
In the case of B5, the binding result in data set [3] is “binds”.
